Reference: patent US20220025045A1

Legend:
[1] = target: human ILT-2 (LILRB1), complete form expressed at the cell surface (human) (UniProt Q8NHL6); assay: flow cytometry, CHO-ILT2 cells
[2] = target: ILT2 on primary human NK cells (human) (UniProt Q8NHL6); assay: flow cytometry, primary NK cells
[3] = target: recombinant human ILT2 protein (analyte in SPR and Octet) (human) (UniProt Q8NHL6); assay: BLI (Octet RED96), mAb captured on AMC biosensor, 1:1 model
human FcRn (human) = human FcRn (human) (UniProt P55899); assay: SPR, antibody immobilized, soluble FcR
human FcRn (human), sequence (P55899 24-297 limits assumed, chain 1 of 2): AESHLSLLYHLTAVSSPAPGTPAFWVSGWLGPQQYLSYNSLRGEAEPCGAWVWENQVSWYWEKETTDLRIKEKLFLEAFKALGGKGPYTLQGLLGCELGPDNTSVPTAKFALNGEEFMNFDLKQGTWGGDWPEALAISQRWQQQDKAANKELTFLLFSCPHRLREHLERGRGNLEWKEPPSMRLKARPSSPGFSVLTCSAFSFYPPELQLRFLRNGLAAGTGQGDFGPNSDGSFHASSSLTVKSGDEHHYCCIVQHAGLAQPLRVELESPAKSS
human FcRn (human), sequence (chain, as listed by the source limits assumed, chain 2 of 2): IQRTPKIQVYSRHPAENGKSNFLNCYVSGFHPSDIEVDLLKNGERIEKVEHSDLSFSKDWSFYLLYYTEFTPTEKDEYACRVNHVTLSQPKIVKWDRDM

[4] = target: recombinant human CD16a(F) (human) (UniProt P08637); assay: SPR, antibody immobilized, soluble FcR, steady state
recombinant human CD16a(F) (human), sequence (P08637 17-208 limits assumed): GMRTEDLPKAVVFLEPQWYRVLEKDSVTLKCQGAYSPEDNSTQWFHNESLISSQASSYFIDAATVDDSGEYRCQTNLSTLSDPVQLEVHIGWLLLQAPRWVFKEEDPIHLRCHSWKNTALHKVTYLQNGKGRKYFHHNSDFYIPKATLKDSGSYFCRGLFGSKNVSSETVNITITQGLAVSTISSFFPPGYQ

[5] = target: recombinant human CD16a(V) (human) (UniProt P08637); assay: as above
recombinant human CD16a(V) (human), sequence (P08637 17-208 F176V limits assumed): as the sequence (P08637 17-208 limits assumed) above, with F160V counted along it

[6] = target: recombinant human CD16b (human) (UniProt O75015); assay: as above
recombinant human CD16b (human), sequence (O75015 17-200 limits assumed): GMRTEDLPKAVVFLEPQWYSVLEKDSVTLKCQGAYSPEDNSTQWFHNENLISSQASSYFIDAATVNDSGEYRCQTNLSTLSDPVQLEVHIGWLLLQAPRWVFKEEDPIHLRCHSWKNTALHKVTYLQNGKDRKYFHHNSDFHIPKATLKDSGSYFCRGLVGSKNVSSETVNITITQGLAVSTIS

[7] = target: recombinant human CD32a (human) (UniProt P12318); assay: as above
recombinant human CD32a (human), sequence (P12318 36-218): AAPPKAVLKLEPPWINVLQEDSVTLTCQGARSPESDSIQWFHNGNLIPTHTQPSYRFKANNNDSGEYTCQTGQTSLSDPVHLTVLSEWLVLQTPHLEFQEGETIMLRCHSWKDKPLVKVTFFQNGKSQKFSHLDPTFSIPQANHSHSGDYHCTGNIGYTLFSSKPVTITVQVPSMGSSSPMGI

[8] = target: recombinant human CD32b (human) (UniProt P31994); assay: as above
recombinant human CD32b (human), sequence (P31994 46-217): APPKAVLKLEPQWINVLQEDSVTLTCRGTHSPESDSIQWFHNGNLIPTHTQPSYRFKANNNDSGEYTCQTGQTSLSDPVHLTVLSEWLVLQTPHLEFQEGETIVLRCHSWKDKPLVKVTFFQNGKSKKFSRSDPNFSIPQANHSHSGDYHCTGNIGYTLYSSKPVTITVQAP

[9] = target: recombinant human CD64 (human) (UniProt P12314); assay: SPR, antibody immobilized, soluble CD64, 1:1 kinetic model
recombinant human CD64 (human), sequence (P12314 16-288 limits assumed): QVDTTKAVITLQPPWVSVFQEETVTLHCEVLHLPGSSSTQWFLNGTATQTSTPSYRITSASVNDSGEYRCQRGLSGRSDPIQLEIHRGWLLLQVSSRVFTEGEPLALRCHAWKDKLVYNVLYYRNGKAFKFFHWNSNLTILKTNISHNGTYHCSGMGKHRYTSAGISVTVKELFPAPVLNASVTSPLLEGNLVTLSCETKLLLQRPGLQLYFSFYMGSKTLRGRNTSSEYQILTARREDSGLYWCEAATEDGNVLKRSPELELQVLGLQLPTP

recombinant human ILT2 protein (analyte in SPR and Octet) (human), sequence (Q8NHL6 24-458 limits assumed): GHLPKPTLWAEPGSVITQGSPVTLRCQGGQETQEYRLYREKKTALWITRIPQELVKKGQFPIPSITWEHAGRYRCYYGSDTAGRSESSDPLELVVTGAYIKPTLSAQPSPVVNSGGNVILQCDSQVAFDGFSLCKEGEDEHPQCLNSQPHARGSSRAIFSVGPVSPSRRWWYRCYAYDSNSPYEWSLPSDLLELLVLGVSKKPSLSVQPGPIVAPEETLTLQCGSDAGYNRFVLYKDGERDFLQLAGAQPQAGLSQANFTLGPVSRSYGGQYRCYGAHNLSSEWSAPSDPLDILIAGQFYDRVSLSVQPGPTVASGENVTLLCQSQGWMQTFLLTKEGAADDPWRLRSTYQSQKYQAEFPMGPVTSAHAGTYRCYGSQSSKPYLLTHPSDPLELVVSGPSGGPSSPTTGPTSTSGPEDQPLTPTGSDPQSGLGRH
ILT2 on primary human NK cells (human), sequence (Q8NHL6 24-650): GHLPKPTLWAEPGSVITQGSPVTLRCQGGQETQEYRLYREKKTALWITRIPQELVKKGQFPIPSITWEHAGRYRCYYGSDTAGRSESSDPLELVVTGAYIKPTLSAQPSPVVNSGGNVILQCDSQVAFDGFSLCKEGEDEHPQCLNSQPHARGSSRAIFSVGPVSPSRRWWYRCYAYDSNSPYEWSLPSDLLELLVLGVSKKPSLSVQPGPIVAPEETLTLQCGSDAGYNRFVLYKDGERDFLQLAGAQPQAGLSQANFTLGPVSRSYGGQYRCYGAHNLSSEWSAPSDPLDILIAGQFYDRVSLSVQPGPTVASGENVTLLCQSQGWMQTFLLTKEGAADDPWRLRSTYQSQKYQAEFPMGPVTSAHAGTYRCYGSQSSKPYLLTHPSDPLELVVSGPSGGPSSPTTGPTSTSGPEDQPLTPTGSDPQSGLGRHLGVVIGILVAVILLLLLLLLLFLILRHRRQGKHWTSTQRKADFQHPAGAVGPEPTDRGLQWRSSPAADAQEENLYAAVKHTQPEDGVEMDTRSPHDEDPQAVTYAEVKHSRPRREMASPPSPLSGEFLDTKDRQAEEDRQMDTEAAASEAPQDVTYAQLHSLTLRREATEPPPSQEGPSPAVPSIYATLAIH
human ILT-2 (LILRB1), complete form expressed at the cell surface (human), sequence (Q8NHL6 24-650): as above

## HP-F1 (antibody)
[1]
  EC50: 0.56 µg/mL
[2]
  EC50: 0.09 µg/mL
[3]
  Kd: 2.3 nM
  koff: 0.0011 s⁻¹
  kon: 460000 M⁻¹ s⁻¹

## antibody having wild type human IgG1 domain
Human FcRn (human)
  Kd: 1270 nM
[4]
  Kd: 962 nM
[5]
  Kd: 734 nM
[6]
  Kd: 15000 nM
[7]
  Kd: 2080 nM

## human IgG1 antibody having L234A/L235E/G237A/A330S/P331S substitutions
Human FcRn (human)
  Kd: 714 nM

## human IgG1 antibody having L234A/L235E/G237A/A330S/P331S substitutions (antibody; other documents disagree on this pair)
[7]
  Kd: 18200 nM
[8]
  Kd: 21800 nM

## human IgG1 antibody having L234A/L235E/G237A/P331S substitutions
Human FcRn (human)
  Kd: 758 nM
[7]
  Kd: 16800 nM
[8]
  Kd: 16600 nM

## human IgG1 antibody having L234A/L235E/P331S substitutions
Human FcRn (human)
  Kd: 1510 nM
[5]
  Kd: 9920 nM
[7]
  Kd: 19900 nM
[8]
  Kd: 79800 nM
[9]
  Kd: 1550 nM

## human IgG1 antibody having L234F/L235E/P331S substitutions
Human FcRn (human)
  Kd: 627 nM
[4]
  Kd: 35600 nM
[5]
  Kd: 8630 nM
[7]
  Kd: 14200 nM
[8]
  Kd: 17400 nM
[9]
  Kd: 933 nM

## human IgG1 antibody having a N297S substitution
Human FcRn (human)
  Kd: 712 nM
[9]
  Kd: 278 nM
